The values that follow come from patent publication US20180171001A1.

What all share (test): cell-based or functional assay
For test [1], the target named is Env of HIV-1 strain 231965.c1 (HIV-1).
The target in test [2] is Env of HIV-1 strain 250-4 (HIV-1).
Test [3] has as its target Env of HIV-1 strain 251-18 (HIV-1).
Test [4] addresses Env of HIV-1 strain 3016.v5.c45 (HIV-1).
For test [5], the target named is Env of HIV-1 strain 3365.v2.c20 (HIV-1).
For test [6], the target named is Env of HIV-1 strain 3415.v1.c1 (HIV-1).
Test [7] deals with Env of HIV-1 strain Du172.17 (HIV-1).
For test [8], the target named is Env of HIV-1 strain H086.8 (HIV-1).
Test [9] addresses Env of HIV-1 strain PVO.4 (HIV-1).
Test [10] has as its target Env of HIV-1 strain R1166.c1 (HIV-1).
The target in test [11] is Env of HIV-1 strain REJO4541.67 (HIV-1).
Test [12] addresses Env of HIV-1 strain X1254_c3 (HIV-1).
Test [13] has as its target Env of HIV-1 strain YU2.DG (HIV-1).
Test [14] deals with Env of HIV-1 strain ZM109F.PB4 (HIV-1).
In test [15] the target is Env of HIV-1 strain ZM53M.PB12 (HIV-1).
The target of test [16] is Env of MuLV.

Substitutions are numbered along the chain they refer to.

B1: 8ANC3044 (antibody, V domains shown)
VH: QIHLVQSGTEVRKPGSSVTVSCKAYGVNTFGLYAVNWVRQAPGQSLEYIGQIWRWKSSASHHFRGRVLISAVDLTGSSPPISSLEIKNLTSDDTAVYFCTTTSTYDKWSGLHHDGVMAFSSWGQGTLISVSA
VL: DIQMTQSPSTLSASIGDTVRISCRASQSITGNWVAWYQQRPGKAPRLLIYRGAALLGGVPSRFSGSAAGTDFTLTIGNLQTEDFGTFYCQQYDTYPGTFGQGTKVEVKR
On to B1, for which the neutralization IC50 in [1] is 1.33 µg/mL; in [2], above 30 µg/mL; in test [3] it was 0.858 µg/mL; in [4] it was 0.242 µg/mL; in test [5], above 30 µg/mL; in test [6] it was 7.56 µg/mL. The neutralization IC50 is above 30 µg/mL in test [7]; 3.83 µg/mL in [8]; 0.26 µg/mL in test [9]; 2.38 µg/mL in test [10]; 0.278 µg/mL in test [11]; 4.54 µg/mL in test [12]. For the same molecule, the neutralization IC50 in [13] is 0.747 µg/mL; in test [14], above 30 µg/mL; in [15] it was 15.2 µg/mL; in [16], above 30 µg/mL.

B2: γ3κ11 (antibody, V domains shown)
VH: QIHLVQSGTEVKKPGSSVTVSCKAYGVNTFGLYAVSWVRQAPGQRLEYIGQIRRWKSSASHHFRGRVTVSAVDPTGSSPPISSLEIRDLTTDDTAVYFCTTTSTSDYWSGLHNERGTAFSSWGQGTLISVSA
VL: B1 VL with I15V, D17G, N32G, V34L, Q38H, A53S, A54R, G77A, T81A
B2: the neutralization IC50 in test [1] is 0.455 µg/mL; in test [2] it was above 15 µg/mL; in [3], above 15 µg/mL; in test [4] it was 0.145 µg/mL; in test [5], above 15 µg/mL; in test [6] it was above 15 µg/mL. Further, the neutralization IC50 in [7] was above 15 µg/mL; in [8], 0.778 µg/mL; in test [9], 0.074 µg/mL; in test [10] it was 1.79 µg/mL; in [11] it was 0.091 µg/mL; in test [12], 2.31 µg/mL. Besides, the neutralization IC50 is 0.276 µg/mL in test [13], above 15 µg/mL in test [14], above 15 µg/mL in [15] and above 30 µg/mL in [16].

B3: γ23κ5 (antibody, V domains shown)
VH: B1 VH with R12K, L68I, Y105S, K107Y
VL: B1 VL with I15T, S64R, T81A
Turning to B3, the neutralization IC50 in [1] was 0.291 µg/mL; in test [2], above 15 µg/mL; in test [3], 0.176 µg/mL; in [4], 0.091 µg/mL; in test [5] it was above 15 µg/mL; in test [6], 1.48 µg/mL. Besides, the neutralization IC50 in test [7] amounted to 1.81 µg/mL; in test [8], 0.474 µg/mL; in test [9] it was 0.043 µg/mL; in test [10] it was 1.07 µg/mL; in test [11], 0.091 µg/mL; in test [12] it was 0.919 µg/mL. Further, the neutralization IC50 in [13] is 0.136 µg/mL; in test [14], above 15 µg/mL; in test [15], 5.88 µg/mL; in test [16] it was above 30 µg/mL.

B4: γ59κ5 (antibody, V domains shown)
VH: B1 VH with R12K, S45G, L89V, K107E, G110D
VL: B1 VL with I15T, S64R, T81A
Consider B4, for which the neutralization IC50 in [1] is above 15 µg/mL; in test [2], above 15 µg/mL; in [3] it was 6.96 µg/mL; in test [4], above 15 µg/mL; in [5], above 15 µg/mL; in test [6], above 15 µg/mL. In addition, the neutralization IC50 was above 15 µg/mL in [7]; above 15 µg/mL in test [8]; above 15 µg/mL in [9]; 28.2 µg/mL in test [10]; 4.67 µg/mL in test [11]; 9.42 µg/mL in test [12]. Moreover, the neutralization IC50 in test [13] is 7.28 µg/mL; in test [14] it was above 15 µg/mL; in test [15], 24.1 µg/mL; in test [16] it was above 30 µg/mL.

B5: 8ANC3430 (antibody, V domains shown)
VH: B1 VH with R12K, L68I, Y105S, K107Y
VL: B1 VL with I15V, N32G, V34L, Q38H, A53S, A54R, G77A, T81A
In the case of B5, the neutralization IC50 in [1] is 1.19 µg/mL; in test [2], above 23 µg/mL; in [3] it was 6.17 µg/mL; in [4], 0.271 µg/mL; in test [5] it was above 23 µg/mL; in [6], above 23 µg/mL. The neutralization IC50 is above 23 µg/mL in test [7]; above 23 µg/mL in test [8]; 0.206 µg/mL in test [9]; 3.64 µg/mL in test [10]; 0.198 µg/mL in [11]; 4.28 µg/mL in [12]. The neutralization IC50 in [13] is 0.545 µg/mL; in test [14], above 23 µg/mL; in test [15], above 23 µg/mL; in [16] it was above 23 µg/mL.

B6: γ3κ5 (antibody, V domains shown)
VH: B2 VH
VL: B1 VL with I15T, S64R, T81A
B6: the neutralization IC50 in test [1] is 0.697 µg/mL; in test [2], above 15 µg/mL; in test [3], 0.721 µg/mL; in [4], 0.314 µg/mL; in [5] it was above 15 µg/mL; in test [6], above 15 µg/mL. Also, the neutralization IC50 in [7] turned out to be 3.73 µg/mL; in test [8], 0.434 µg/mL; in test [9] it was 0.081 µg/mL; in test [10], 2.07 µg/mL; in test [11] it was 0.097 µg/mL; in test [12], 1.72 µg/mL. Further, the neutralization IC50 was 0.2 µg/mL in test [13], above 15 µg/mL in test [14], above 15 µg/mL in test [15] and above 15 µg/mL in test [16].

B7: γ22κ5 (antibody, V domains shown)
VH: B1 VH with R12K, S77P
VL: B1 VL with I15T, S64R, T81A
With B7, the neutralization IC50 in test [1] was 0.69 µg/mL; in test [2], above 15 µg/mL; in test [3], 1.7 µg/mL; in [4], 0.103 µg/mL; in [5] it was above 15 µg/mL; in [6] it was above 15 µg/mL. For the same molecule, the neutralization IC50 is above 15 µg/mL in test [7]; above 15 µg/mL in test [8]; 0.352 µg/mL in test [9]; 2.4 µg/mL in test [10]; 0.795 µg/mL in test [11]; 1.52 µg/mL in test [12]. In addition, the neutralization IC50 was 0.569 µg/mL in [13], above 15 µg/mL in test [14], above 15 µg/mL in test [15] and above 30 µg/mL in test [16].
